Assay [1] has as its target stabilized microtubules polymerized from cow brain tubulin (cow) (UniProt Q6B856). As to the kind of experiment: TIRF microscopy of microtubule end decoration.
The target of assay [2] is human full-length GFP-CLASP2α (human) (UniProt O75122). Briefly: TIRF microscopy of microtubules on DNA origami-clustered protein.

End brightness and time for which half of the microtubules keep end association data for three molecules are collected here from article PMC9812398.

In assay [1], “human full-length GFP-CLASP2α (from UniProt O75122-3 1-1515) (natural protein)” gave an end brightness of 594 a.u.
On to “stabilized microtubules polymerized from cow brain tubulin (from UniProt Q6B856 1-445) (complex)”, for which, in assay [2], the time for which half of the microtubules keep end association was determined as 4 h.

B1: GFP-L-TOG2-S (domain or fragment)
chain: KVPAPKTSGNPANSARKPGSAGGPKVGAGASKEGGAGAVDEDDFIKAFTDVPSIQIYSSRELEETLNKIREILSDDKHDWDQRANALKKIRSLLVAGAAQYDCFFQHLRLLDGALKLSAKDLRSQVVREACITVAHLSTVLGNKFDHGAEAIVPTLFNLVPNSAKVMATSGCAAIRFIIRHTHVPRLIPLITSNCTSKSVPVRRRSFEFLDLLLQEWQTHSLERHAAVLVETIKKGIHDADAEARVEARKTYMGLRNHFPGEAETLYNSLEPSYQKSLQTYLKSSGSVASLPQSDRSSSSSQESLNRPFSSKWSTANPSTVAGRVSAGSSKASSLPGSLQRSRSDIDVNAAAGAKAHHAAGQSVRSGRLGAGALNAGSYASLEDTSDKLDGTASEDGRVRAKLSAPLAGMGNAKADSRGRSRTKMVSQSQPGSRSGSPGRVLTTTALSTVSSGVQRVLVNSASAQKRSKIPRSQGCSREASPSRLSVARSSRIPRPSVSQGCSREASRESSRDTSPVRSFQPLGPGYGISQSS
Turning to B1, the end brightness in assay [1] was found to be 757 a.u.
